Source: US7208293

Tests used:
[1] = biological target: trypsin (UniProt P00760); assay: acid elution from trypsin beads
[2] = biological target: anhydro-trypsin (UniProt P00760); assay: elution from anhydrotrypsin beads
[3] = biological target: human neutrophil elastase (human) (UniProt P08246); assay: acid elution from HNE beads
[4] = biological target: trypsin (UniProt P00760); assay: elution from trypsin beads
[5] = biological target: anhydro-trypsin (UniProt P00760); assay: acid elution from anhydrotrypsin beads, experiment 2
[6] = biological target: anhydro-trypsin (UniProt P00760); assay: loss of titer on anhydrotrypsin beads
[7] = biological target: anhydro-trypsin (UniProt P00760); assay: acid elution from anhydrotrypsin beads, experiment 1
[8] = biological target: human neutrophil elastase (human) (UniProt P08246); assay: HNE beads, abbreviated fractionation, WASH
[9] = biological target: human Cathepsin G (human) (UniProt P08311); assay: Cat-G beads, pH 5.5 elution
[10] = biological target: human Cathepsin G (human) (UniProt P08311); assay: Cat-G beads, SUM of all pH elution fractions
[11] = biological target: human Cathepsin G (human) (UniProt P08311); assay: Cat-G beads, pH 3.0 elution
[12] = biological target: human neutrophil elastase (human) (UniProt P08246); assay: HNE beads, pH 6.0 elution
[13] = biological target: human neutrophil elastase (human) (UniProt P08246); assay: HNE beads, pH 4.5 elution
[14] = biological target: human neutrophil elastase (human) (UniProt P08246); assay: HNE beads, pH 7.0 elution
[15] = biological target: human neutrophil elastase (human) (UniProt P08246); assay: HNE beads, abbreviated fractionation, pH 3.5
[16] = biological target: human neutrophil elastase (human) (UniProt P08246); assay: HNE beads, final TBS-TWEEN wash
[17] = biological target: human Cathepsin G (human) (UniProt P08311); assay: Cat-G beads, pH 4.0 elution
[18] = biological target: human Cathepsin G (human) (UniProt P08311); assay: Cat-G beads, pH 2.5 elution
[19] = biological target: human neutrophil elastase (human) (UniProt P08246); assay: HNE beads, pH 4.0 elution
[20] = biological target: human Cathepsin G (human) (UniProt P08311); assay: Cat-G beads, pH 2.0 elution
[21] = biological target: human neutrophil elastase (human) (UniProt P08246); assay: HNE beads, abbreviated fractionation, pH 7.0
[22] = biological target: human neutrophil elastase (human) (UniProt P08246); assay: HNE beads, pH 3.5 elution
[23] = biological target: human neutrophil elastase (human) (UniProt P08246); assay: HNE beads, pH 5.5 elution
[24] = biological target: human Cathepsin G (human) (UniProt P08311); assay: Cat-G beads, pH 6.0 elution
[25] = biological target: human neutrophil elastase (human) (UniProt P08246); assay: HNE beads, pH 2.5 elution
[26] = biological target: human Cathepsin G (human) (UniProt P08311); assay: Cat-G beads, pH 7.0 elution
[27] = biological target: human neutrophil elastase (human) (UniProt P08246); assay: HNE beads, pH 3.0 elution
[28] = biological target: human neutrophil elastase (human) (UniProt P08246); assay: HNE beads, pH 5.0 elution
[29] = biological target: human Cathepsin G (human) (UniProt P08311); assay: Cat-G beads, final TBS-TWEEN wash
[30] = biological target: human Cathepsin G (human) (UniProt P08311); assay: Cat-G beads, pH 4.5 elution
[31] = biological target: human neutrophil elastase (human) (UniProt P08246); assay: HNE beads, abbreviated fractionation, SUM of pH fractions
[32] = biological target: human neutrophil elastase (human) (UniProt P08246); assay: HNE beads, abbreviated fractionation, pH 2.0
[33] = biological target: human neutrophil elastase (human) (UniProt P08246); assay: HNE beads, SUM of all pH elution fractions
[34] = biological target: human neutrophil elastase (human) (UniProt P08246); assay: HNE beads, pH 2.0 elution
[35] = biological target: human Cathepsin G (human) (UniProt P08311); assay: Cat-G beads, pH 5.0 elution
[36] = biological target: human Cathepsin G (human) (UniProt P08311); assay: Cat-G beads, pH 3.5 elution
[37] = biological target: trypsin (UniProt P00760); assay: immobilized trypsin, CBS buffer pH 6.5, pH 2.2 elution
[38] = biological target: trypsin (UniProt P00760); assay: immobilized trypsin, TBS buffer pH 7.5, pH 2.2 elution
[39] = biological target: M13 MB48 phage (BPTI:VIII fusion display phage) (bovine BPTI fused to phage M13 gene VIII protein); assay: strain M13MB48 batch 4; NRS IgG and protein A-agarose
[40] = biological target: M13 mp18 phage; assay: strain M13MP18; NRS IgG and protein A-agarose
[41] = biological target: M13 mp18 phage; assay: strain M13MP18; IgG from normal rabbit serum added
[42] = biological target: M13 MB48 phage (BPTI:VIII fusion display phage) (bovine BPTI fused to phage M13 gene VIII protein); assay: strain M13MB48 batch 4; NRS IgG added
[43] = biological target: M13 MB48 phage (BPTI:VIII fusion display phage) (bovine BPTI fused to phage M13 gene VIII protein); assay: strain M13MB48 batch 5; NRS IgG added
[44] = biological target: M13 MB48 phage (BPTI:VIII fusion display phage) (bovine BPTI fused to phage M13 gene VIII protein); assay: strain M13MB48 batch 5; NRS IgG and protein A-agarose
[45] = biological target: M13 MB48 phage (BPTI:VIII fusion display phage) (bovine BPTI fused to phage M13 gene VIII protein); assay: strain M13MB48 batch 5; protein A-agarose alone

Sequence of human Cathepsin G (human) (P08311 21-244 limits assumed): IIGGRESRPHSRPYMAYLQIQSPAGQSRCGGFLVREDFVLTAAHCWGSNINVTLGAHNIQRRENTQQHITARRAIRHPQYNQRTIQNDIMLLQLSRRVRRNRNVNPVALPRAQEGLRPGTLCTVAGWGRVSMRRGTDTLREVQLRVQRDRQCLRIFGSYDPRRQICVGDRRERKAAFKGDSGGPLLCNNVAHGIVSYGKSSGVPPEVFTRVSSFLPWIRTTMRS
Sequence of trypsin (P00760 24-246): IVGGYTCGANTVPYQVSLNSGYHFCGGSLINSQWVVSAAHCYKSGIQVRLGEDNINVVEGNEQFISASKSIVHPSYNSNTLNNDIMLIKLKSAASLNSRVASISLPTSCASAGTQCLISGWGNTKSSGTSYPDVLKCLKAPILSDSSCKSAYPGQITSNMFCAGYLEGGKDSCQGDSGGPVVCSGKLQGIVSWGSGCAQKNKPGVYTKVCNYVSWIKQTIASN
Sequence of anhydro-trypsin (P00760 24-246): as above
Sequence of human neutrophil elastase (human) (P08246 30-247 limits assumed): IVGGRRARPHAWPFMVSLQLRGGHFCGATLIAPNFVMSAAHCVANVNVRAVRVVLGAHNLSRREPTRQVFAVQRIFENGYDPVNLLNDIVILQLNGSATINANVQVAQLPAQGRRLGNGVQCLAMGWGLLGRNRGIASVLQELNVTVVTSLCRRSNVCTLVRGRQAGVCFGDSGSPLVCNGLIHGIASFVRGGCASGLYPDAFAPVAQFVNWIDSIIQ

M13 mp18 phage
eluted phage, percentage of input [1]: 0.0005%
relative binding (to M13MP18) [1]: 1
eluted phage, percentage of input [2]: 0.1%
relative binding (to M13MP18) [2]: 1
eluted phage, percentage of input [3]: 0.0003%
relative binding (to M13MP18) [3]: 1
eluted phage, percentage of input [4]: 0.00023%
relative binding (to M13MP18) [4]: 1
eluted phage, percentage of input [5]: 0.3%
relative to M13mp18 [5]: 1
pfu post incubation, percentage of input [6]: 121%
eluted phage, percentage of input [7]: 0.2%
relative to M13MP18 [7]: 1

MA-ITI phage (ITI-D1-III fusion display phage) (from UniProt P02760 22-77)
fraction of input [8]: 1e-05
fraction of input [9]: 2.6e-06
total pfu in sample [9]: 1.2e+06 pfu
fraction of input [10]: 3e-05
total pfu in sample [10]: 1.4e+07 pfu
fraction of input [11]: 7.8e-07
total pfu in sample [11]: 360000 pfu
fraction of input [12]: 2.9e-06
total pfu in sample [12]: 1e+06 pfu
fraction of input [13]: 3.5e-07
total pfu in sample [13]: 120000 pfu
fraction of input [14]: 4.7e-06
total pfu in sample [14]: 1.6e+06 pfu
fraction of input [15]: 3e-06
fraction of input [16]: 5.3e-06
total pfu in sample [16]: 1.8e+06 pfu
fraction of input [17]: 9.6e-07
total pfu in sample [17]: 440000 pfu
fraction of input [18]: 5.9e-07
total pfu in sample [18]: 270000 pfu
fraction of input [19]: 2.1e-07
total pfu in sample [19]: 72000 pfu
fraction of input [20]: 7e-07
total pfu in sample [20]: 320000 pfu
fraction of input [21]: 1e-05
fraction of input [22]: 1.4e-07
total pfu in sample [22]: 49000 pfu
fraction of input [23]: 4.7e-06
total pfu in sample [23]: 1.6e+06 pfu
fraction of input [24]: 5e-06
total pfu in sample [24]: 2.3e+06 pfu
fraction of input [25]: 4.1e-08
total pfu in sample [25]: 14000 pfu
fraction of input [26]: 1.3e-05
total pfu in sample [26]: 6.1e+06 pfu
fraction of input [27]: 8.5e-08
total pfu in sample [27]: 29000 pfu
fraction of input [28]: 9.1e-07
total pfu in sample [28]: 310000 pfu
fraction of input [29]: 1.5e-05
total pfu in sample [29]: 7.1e+06 pfu
fraction of input [30]: 1.5e-06
total pfu in sample [30]: 670000 pfu
fraction of input [31]: 1.4e-05
fraction of input [32]: 1e-06
fraction of input [33]: 2e-05
total pfu in sample [33]: 5.7e+06 pfu
fraction of input [34]: 5e-08
total pfu in sample [34]: 17000 pfu
fraction of input [35]: 2.4e-06
total pfu in sample [35]: 1.1e+06 pfu
fraction of input [36]: 9.6e-07
total pfu in sample [36]: 440000 pfu

MK phage
percent of input phage recovered [37]: 0.00028%
percent of input phage recovered [38]: 0.00034%

normal rabbit serum / IgG purified from normal rabbit serum (antibody)
percentage of input phage (pfu) remaining [39]: 121%
percentage of input phage (pfu) remaining [40]: 88%
percentage of input phage (pfu) remaining [41]: 104%
percentage of input phage (pfu) remaining [42]: 125%
percentage of input phage (pfu) remaining [43]: 105%
percentage of input phage (pfu) remaining [44]: 110%

protein A (agarose beads)
percentage of input phage (pfu) remaining [45]: 58%
